Results taken from patent publication US8834920B2, “Liposome composition for targeting egfr receptor” (Alza Corporation, priority 2006, dated 2014).

Key:
sEGFR-MMB [1] = target: T1, sEGFR-MMB (Homo sapiens, UniProt P00533); experiment: Phage ELISA on coated sEGFR-MMB; format: binding; conditions: P190 phage, construct SEGFR-MMB
T1 construct: made in house; host or cells: HEK 293E
Procedure: (§1) The protein solution was removed and wells were rinsed twice with Tris-Buffered Saline containing 0.05% Tween-20 (TBS-T) using a plate washer (Embla). The wells were blocked with Starting Block in TBS for 1 hr at room temperature and rinsed twice with TBS-T. An equal volume of phage supernatant and Starting Block in TBS were incubated in the wells for 1 hr at room temperature, and the wells were rinsed five times with TBS-T. Anti-M13/horseradish peroxidase conjugate (Amersham), diluted 1:5000 in Starting Block in TBS, was added into the wells and incubated for 1 hour at room temperature, and then the wells were rinsed five times with TBS-T. Finally, chemiluminescent peroxidase substrate (Roche) was added to the wells, and chemiluminescence was measured on a Tecan plate reader.
Phage were amplified in XL-1 Blue host cells and purified by precipitation with 6% polyethylene glycol-8000/0.5 M sodium chloride. The precipitated phage were resuspended in phosphate-buffered saline in a volume that was 1/100th the original culture volume. For competitive ELISA experiments, plates were prepared by coating wells with sEGFR-MMB or the Control-MMB followed by blocking as described above. […] The binding reaction was incubated for 1 hr at room temperature, and then bound phage were detected with anti-M13/HRP as above. […] Bound phage were washed and detected with anti-M13/HRP as described above. […]

sEGFR-His6 = target: T2, sEGFR-His6 (Homo sapiens, UniProt P00533); experiment: Phage ELISA on coated sEGFR-His6; format: binding; conditions: P190 phage, construct sEGFR-His6
T2 construct: made in house; host or cells: HEK293E (transient, secreted)
Procedure: (§2) The plates were held overnight at room temperature, washed twice with TBST (0.5M Tris Base, 9% NaCl, 0.05% tween, pH 7.6), and loaded with 200 μL per well of Starting Block (Pierce). […] The plates were held at room temperature for 1.5 hours for blocking. Plates were then washed twice with TBST and phage were added. The phage solutions were crude phage supernatant from overnight cultures diluted four-fold with Starting Block. After a one-hour incubation, the plates were washed thrice with TBST and 100 μL of a 1:5000 dilution of phage binding antibody conjugate (α-M13-HRP) was added to the wells. EGF was added if applicable. After a one-hour incubation the plates were washed five times with TBST, 100 μL of POD (BM Chemiluminescence ELISA substrate; Roche Applied Science) was added, and chemiluminescene recorded.

EGF + sEGFR-MMB Complex = target: T3, EGF + sEGFR-MMB Complex (Homo sapiens, UniProt P00533); experiment: Phage ELISA on complex of EGF and sEGFR-MMB; format: binding
T3 construct: made in house
Procedure: as §2

Control-MMB = Control-MMB (Homo sapiens, UniProt P01857); experiment: Phage ELISA on Control-MMB; format: binding
Procedure: as §1
The plates were held overnight at room temperature, washed twice with TBST (0.5M Tris Base, 9% NaCl, 0.05% tween, pH 7.6), and loaded with 200 μL per well of Starting Block (Pierce). […] The plates were held at room temperature for 1.5 hours for blocking. Plates were then washed twice with TBST and phage were added. […] After a one-hour incubation the plates were washed five times with TBST, 100 μL of POD (BM Chemiluminescence ELISA substrate; Roche Applied Science) was added, and chemiluminescene recorded.

A431 cells [2] = experiment: Flow cytometry (FACS) of phage binding to A431 cells; format: cell-based, human
Procedure: (§3) To evaluate whether the selected peptides from phage display can bind to tumor cells that overexpress EGFR, A431 cells (epidermoid cancer) or an EGFR negative tumor cells, MCF-7 (breast carcinoma) were tested in a flow cytometry assay using fluorescence detection (FACS). For P145, PP146 and their control phage, 2.5×10^5 A431 cells were resuspended in 25 μl of flow staining buffer (dPBS with 1% BSA, 0.09% sodium azide) and incubated with 25 μl of phage clones for 1 hour at 4° C.
(§4) A431 cells (epidermoid cancer) which overexpress EGFR and EGFR-negative tumor cells, MCF-7 (breast carcinoma) were tested in a flow cytometry assay. Tumor cells (A431 and MCF-7) were harvested with 0.25% tyrpsin-EDTA and washed twice with FACS staining buffer (dPBS with 1% BSA, 0.09% sodium azide). […] After binding at 4° C., cells were washed twice with FACS staining buffer to remove unbound phage and then incubated with 0.5 μg of mouse anti-M13 monoclonal antibody conjugated to FITC (Fitzgerald Industries International, Inc. Concord, Mass.) for 1 hour at 4° C. Mouse anti-M13-FITC incubated with cells without phage was used as background binding. Cells were washed twice with FACS staining buffer to remove unbound detection antibody.

MCF-7 = experiment: Flow cytometry (FACS) of phage binding to MCF-7 cells; format: cell-based, human; conditions: EGFR overexpressing vs EGFR negative cells
Procedure: as §3, §4

A431 cells [3] = experiment: FACS of P190-MMB constructs or cetuximab on A431 cells; format: cell-based, human
sEGFR-MMB [4] = target: T1, sEGFR-MMB; experiment: P190-MMB constructs, solid phase binding (BIAcore, ELISA) to immobilized sEGFR-MMB
From the text: In contrast, 190-MMB as the 4316 construct, binds EGFR and the presence of excess EGF promotes its binding.

EGFR = experiment: FACE (Fast Activated Cell-based ELISA) of EGFR phosphorylation

Q: For DPCTWEVWGRECLQ [Peptide P190], which “Relative Signal” value (sEGFR-MMB [1]) is on record?
A: The value was 3937 ± 335.

Q: And the “Relative Signal” value (sEGFR-His6)?
A: Its value is 6.

Q: And the “Relative Signal” value (EGF + sEGFR-MMB Complex; P190 phage, construct SEGFR-MMB + EGF)?
A: Its value is 29408 ± 259.

Q: And the “binding to dimeric EGFR in the presence of EGF or TGF-a” value (EGF + sEGFR-MMB Complex; phage ELISA)?
A: Its value is “increased”.

Q: What about the “binding to Control-MMB” value (Control-MMB) of the same molecule?
A: The value was “fails to bind”.

Q: What about the “binding to A431 cells in the presence of EGF” value (A431 cells [2]) of the same molecule?
A: Its value is “increased”.

Q: What about the “binding to A431 cells in the presence of EGF and cetuximab” value (A431 cells [2]) of the same molecule?
A: The value was “decreases”.

Q: And the “binding to A431 tumor cells” value (A431 cells [2]; anti-phage-FITC, 4° C.)?
A: The value was “bind”.

Q: What about the “binding to A431 compared to MCF-7” value (MCF-7) of the same molecule?
A: The value was “bound more effectively to A431 cells”.

Q: “SGCLDALWQCVY (Random peptide) [Peptide P174]” was tested. Which “binding to A431 relative to positive control phage displaying EGF” value (A431 cells [2]) did it give?
A: The value was “comparable”.

Q: What about the “binding to A431 compared to MCF-7” value (MCF-7) of the same molecule?
A: Its value is “greater to A431 than to MCF-7”.

Q: “KTCVSTTFDLWFVCFA (Random peptide) [Peptide P176]” was tested. Which “binding to A431 relative to positive control phage displaying EGF” value (A431 cells [2]) did it give?
A: The value was “comparable”.

Q: For “TLCRSFFHPLCYA (Random peptide) [Peptide P146]”, which “binding to A431 relative to positive control phage displaying EGF” value (A431 cells [2]) is on record?
A: Its value is “weaker”.

Q: For VLCHRYYHPICYT [Peptide P145], which “binding to A431 relative to positive control phage displaying EGF” value (A431 cells [2]) is on record?
A: Its value is “weaker”.

Q: And the “binding to A431 compared to MCF-7” value (MCF-7)?
A: Its value is “greater binding to A431 than MCF-7 cells”.

B1: 4315: P190-MMB construct, Flex GGGGS, n 2 (protein)
chain: GGDPCTWEVWGRECLQGGGGSGGGGSCPPCPAPEAAGGPSVFLFPPKPKDTLMISRTPEVTCVVVDVSQEDPEVQFNWYVDGVEVHNAKTKPREEQFNSTYRVVSVLTVLHQDWLNGKEYKCKVSNKGLPSSIEKTISKAKGQPREPQVYTLPPSQEEMTKNQVSLTCLVKGFYPSDIAVEWESNGQPENNYKTTPPVLDSDGSFFLYSRLTVDKSRWQEGNVFSCSVMHEALHNHYTQKSLSLSLGK
Q: With B1 as the molecule, how does the “binding to A431” value (A431 cells [3]) read?
A: The value was “little binding”.

B2: 4316: P190-MMB construct with the longest linker, Flex GGGGS, n 4 (protein)
chain: GGDPCTWEVWGRECLQGGGGSGGGGSGGGGSGGGGSCPPCPAPEAAGGPSVFLFPPKPKDTLMISRTPEVTCVVVDVSQEDPEVQFNWYVDGVEVHNAKTKPREEQFNSTYRVVSVLTVLHQDWLNGKEYKCKVSNKGLPSSIEKTISKAKGQPREPQVYTLPPSQEEMTKNQVSLTCLVKGFYPSDIAVEWESNGQPENNYKTTPPVLDSDGSFFLYSRLTVDKSRWQEGNVFSCSVMHEALHNHYTQKSLSLSLGK
Q: B2 was tested. Which on-rate (sEGFR-MMB [4]) did it give?
A: Its on-rate is “much more pronounced on-rate than the other constructs”.

Q: And the “binding rank among linker variants” value (sEGFR-MMB [4]; ELISA and FACS)?
A: Its value is “best binder”.

Q: What about the “effect of EGF on binding to A431” value (A431 cells [3]; excess rhEGF) of the same molecule?
A: Its value is “enhanced binding”.

Q: What about the “interference with EGF activation of EGFR” value (EGFR) of the same molecule?
A: Its value is “nor interfere with EGF activation of EGFR”.

Q: And the “EGFR phosphorylation (receptor activation)” value (EGFR; absence of EGF)?
A: Its value is “did not induce EGFR phosphorylation”.
